Patent US20230257453A1 (published 2023)
Substitutions are numbered along the chain they refer to.

T1: denatured human collagen type III (UniProt P02461 154-1221)
T1 chain: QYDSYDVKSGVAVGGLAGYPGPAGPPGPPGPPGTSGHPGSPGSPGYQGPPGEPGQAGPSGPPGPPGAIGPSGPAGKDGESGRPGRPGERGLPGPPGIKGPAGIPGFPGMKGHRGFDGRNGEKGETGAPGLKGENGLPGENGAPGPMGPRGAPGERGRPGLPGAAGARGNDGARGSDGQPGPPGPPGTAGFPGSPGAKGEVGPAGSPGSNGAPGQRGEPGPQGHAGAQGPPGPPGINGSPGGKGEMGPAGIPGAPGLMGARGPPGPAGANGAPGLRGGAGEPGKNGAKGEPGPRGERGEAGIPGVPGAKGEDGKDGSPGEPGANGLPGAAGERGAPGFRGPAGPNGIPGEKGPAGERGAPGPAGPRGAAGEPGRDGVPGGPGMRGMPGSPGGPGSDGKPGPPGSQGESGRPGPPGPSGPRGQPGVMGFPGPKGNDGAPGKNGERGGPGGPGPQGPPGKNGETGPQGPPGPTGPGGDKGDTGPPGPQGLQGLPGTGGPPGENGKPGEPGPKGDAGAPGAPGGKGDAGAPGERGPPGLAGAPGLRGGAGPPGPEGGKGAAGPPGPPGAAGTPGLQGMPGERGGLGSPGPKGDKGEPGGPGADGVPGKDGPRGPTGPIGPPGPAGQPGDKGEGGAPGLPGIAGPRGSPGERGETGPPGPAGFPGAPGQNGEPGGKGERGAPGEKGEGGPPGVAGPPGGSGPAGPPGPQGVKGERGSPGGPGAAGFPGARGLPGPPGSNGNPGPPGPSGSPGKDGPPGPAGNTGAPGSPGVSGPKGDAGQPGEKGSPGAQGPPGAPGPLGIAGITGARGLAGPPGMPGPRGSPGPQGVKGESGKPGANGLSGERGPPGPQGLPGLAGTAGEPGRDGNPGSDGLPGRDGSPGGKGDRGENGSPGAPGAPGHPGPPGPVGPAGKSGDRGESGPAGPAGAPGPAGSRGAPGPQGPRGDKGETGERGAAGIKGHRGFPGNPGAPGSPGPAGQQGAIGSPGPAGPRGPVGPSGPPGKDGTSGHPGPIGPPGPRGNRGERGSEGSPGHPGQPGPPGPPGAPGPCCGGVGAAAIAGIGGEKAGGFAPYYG

B1: P27962716 (antibody)
chain 1: not shown
chain 2: DIVMTQTPLSLPVTPGEPASISCRSSQSIVSSWGNTYLEWYLQKPGQSPQLLIYKVSNRFSGVPDRFSGSGSGTDFTLKISRVEAEDVGVYYCFQGSHVPWTFGQGTKVEIKRTVAAPSVFIFPPSDEQLKSGTASVVCLLNNFYPREAKVQWKVDNALQSGNSQESVTEQDSKDSTYSLSSTLTLSKADYEKHKVYACEVTHQGLSSPVTKSFNRGEC
B2: P27152714 (antibody, V domains shown)
VH: QVTLKESGPALVKPTQTLTLTCTFSGFSLSTPGMGVWWIRQPPGKALEWLADIWWDDNKYTNPSLKSRLTISKDTSKNQVVLTMTNMDPVDTATYYCARRANYGNPYYAQDYWGQGTTVTVSS
VL: DIVMTQTPLSLPVTPGEPASISCRSSQSIVHSQGNTYLEWYLQKPGQSPQLLIYKVSNRFSGVPDRFSGSGSGTDFTLKISRVEAEDVGVYYCFQGSHVPWTFGQGTKVEIKR
B3: P27122713 (antibody)
heavy: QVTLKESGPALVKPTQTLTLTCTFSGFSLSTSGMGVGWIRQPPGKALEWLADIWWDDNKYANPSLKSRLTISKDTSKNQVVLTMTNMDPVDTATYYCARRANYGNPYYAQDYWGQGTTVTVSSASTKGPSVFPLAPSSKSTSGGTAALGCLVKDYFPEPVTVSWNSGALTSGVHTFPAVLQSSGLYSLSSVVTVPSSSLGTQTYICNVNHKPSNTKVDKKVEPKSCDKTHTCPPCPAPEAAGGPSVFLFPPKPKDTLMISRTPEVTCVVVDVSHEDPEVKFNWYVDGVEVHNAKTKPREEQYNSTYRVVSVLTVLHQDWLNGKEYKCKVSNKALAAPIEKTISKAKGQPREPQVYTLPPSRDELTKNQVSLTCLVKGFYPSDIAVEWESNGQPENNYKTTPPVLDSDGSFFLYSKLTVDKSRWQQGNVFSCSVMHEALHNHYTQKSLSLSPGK
light: B1 chain 2 with S31H, W33N
B4: P27122716 (antibody)
chain 1: not shown
chain 2: B1 chain 2
B5: P27152798 (antibody)
heavy: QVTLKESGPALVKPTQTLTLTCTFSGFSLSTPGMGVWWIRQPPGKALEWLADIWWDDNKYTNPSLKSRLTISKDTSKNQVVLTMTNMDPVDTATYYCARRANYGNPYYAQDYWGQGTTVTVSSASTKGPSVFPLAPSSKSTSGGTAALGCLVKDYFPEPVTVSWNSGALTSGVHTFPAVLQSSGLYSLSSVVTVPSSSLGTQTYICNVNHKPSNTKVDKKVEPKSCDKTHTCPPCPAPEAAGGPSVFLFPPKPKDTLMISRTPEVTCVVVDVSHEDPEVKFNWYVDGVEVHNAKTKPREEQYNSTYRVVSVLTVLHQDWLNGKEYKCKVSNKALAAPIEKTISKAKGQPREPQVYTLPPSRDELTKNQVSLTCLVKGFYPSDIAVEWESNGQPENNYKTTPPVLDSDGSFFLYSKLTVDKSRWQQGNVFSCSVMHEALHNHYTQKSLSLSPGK
light: B1 chain 2 with S31H, W33N, G34A
B6: P27152716 (antibody)
heavy: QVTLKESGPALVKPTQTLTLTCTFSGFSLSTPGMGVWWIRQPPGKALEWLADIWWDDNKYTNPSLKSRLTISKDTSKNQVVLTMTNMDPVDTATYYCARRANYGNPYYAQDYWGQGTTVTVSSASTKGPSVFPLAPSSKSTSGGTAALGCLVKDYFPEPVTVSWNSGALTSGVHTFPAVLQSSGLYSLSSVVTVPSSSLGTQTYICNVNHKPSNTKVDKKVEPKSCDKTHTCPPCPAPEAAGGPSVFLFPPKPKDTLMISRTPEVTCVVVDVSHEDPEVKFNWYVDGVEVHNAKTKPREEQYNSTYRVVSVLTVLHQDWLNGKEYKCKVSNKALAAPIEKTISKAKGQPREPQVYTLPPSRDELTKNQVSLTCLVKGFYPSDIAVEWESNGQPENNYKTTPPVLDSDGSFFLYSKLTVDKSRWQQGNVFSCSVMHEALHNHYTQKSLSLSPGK
light: B1 chain 2
B7: P27122714 (antibody)
chain 1: not shown
chain 2: B1 chain 2 with S31H, W33Q
B8: P27602716 (antibody, V domains shown)
VH: EVQLVESGGGLVQPGGSLRLSCAASGFSLSTPGMGVWWVRQAPGKGLEWLADIWWDDNKYTNPSLKSRLTISKDNAKNSLYLQMNSLRAEDTAVYYCARRANYGNPYYAQDYWGQGTTVTVSS
VL: B2 VL with H31S, Q33W
B9: P27592716 (antibody, V domains shown)
VH: B8 VH with V39I, K73R
VL: B2 VL with H31S, Q33W
B10: P27662716 (antibody, V domains shown)
VH: B2 VH with P43S, K45E, A46G
VL: B2 VL with H31S, Q33W
B11: P27582716 (antibody, V domains shown)
VH: B8 VH with V39I, L50V, K73R
VL: B2 VL with H31S, Q33W
B12: P27612716 (antibody, V domains shown)
VH: B8 VH with V39I
VL: B2 VL with H31S, Q33W
B13: P27642716 (antibody, V domains shown)
VH: B2 VH with A46G
VL: B2 VL with H31S, Q33W
B14: P27632716 (antibody, V domains shown)
VH: B2 VH with K45E
VL: B2 VL with H31S, Q33W

Biological target: T2, denatured human collagen type V (UniProt P20908 38-1605)
Experiment: ELISA

EC50 [nM] | Binder
3.31 | B1

Biological target: T3, denatured human collagen type IV (UniProt P02462 173-1669; P08572 184-1712)
Experiment: ELISA

EC50 [nM] | Binder
18.6 | B1

Biological target: T1, denatured human collagen type III
Experiment: ELISA

EC50 [nM] | Binder
3.94 | B1

Biological target: T4, denatured human collagen I (UniProt P02452 162-1218; P08123 80-1119)
Experiment: ELISA

EC50 [nM] | Binder
18.5 | B2
59.7 | B3
19 | B4
76.3 | B5
2.12 | B6
80.8 | B7

Biological target: T3, denatured human collagen type IV
Experiment: ELISA
Remark: another data set of the same source

EC50 [nM] | Binder
13 | B2
10.4 | B3
125 | B4
1.37 | B6
33.9 | B7

Biological target: T4, denatured human collagen I
Experiment: ELISA
Remark: another data set of the same source

EC50 [nM] | Binder
21.1 | B8
2.44 | B9
9.81 | B10
9.38 | B11
10.9 | B12
2.39 | B13
3.04 | B14

Biological target: T2, denatured human collagen type V
Experiment: ELISA
Remark: another data set of the same source

EC50 [nM] | Binder
~259 | B3
86.2 | B5
15.2 | B6

Biological target: T1, denatured human collagen type III
Experiment: ELISA
Remark: another data set of the same source

EC50 [nM] | Binder
32.9 | B3
59.6 | B5
9.63 | B6

Biological target: denatured mouse collagen IV (mouse, UniProt P02463 28-1669; P08122 26-1707)
Experiment: ELISA

Chain of denatured mouse collagen IV (P02463 28-1669, chain 1 of 2): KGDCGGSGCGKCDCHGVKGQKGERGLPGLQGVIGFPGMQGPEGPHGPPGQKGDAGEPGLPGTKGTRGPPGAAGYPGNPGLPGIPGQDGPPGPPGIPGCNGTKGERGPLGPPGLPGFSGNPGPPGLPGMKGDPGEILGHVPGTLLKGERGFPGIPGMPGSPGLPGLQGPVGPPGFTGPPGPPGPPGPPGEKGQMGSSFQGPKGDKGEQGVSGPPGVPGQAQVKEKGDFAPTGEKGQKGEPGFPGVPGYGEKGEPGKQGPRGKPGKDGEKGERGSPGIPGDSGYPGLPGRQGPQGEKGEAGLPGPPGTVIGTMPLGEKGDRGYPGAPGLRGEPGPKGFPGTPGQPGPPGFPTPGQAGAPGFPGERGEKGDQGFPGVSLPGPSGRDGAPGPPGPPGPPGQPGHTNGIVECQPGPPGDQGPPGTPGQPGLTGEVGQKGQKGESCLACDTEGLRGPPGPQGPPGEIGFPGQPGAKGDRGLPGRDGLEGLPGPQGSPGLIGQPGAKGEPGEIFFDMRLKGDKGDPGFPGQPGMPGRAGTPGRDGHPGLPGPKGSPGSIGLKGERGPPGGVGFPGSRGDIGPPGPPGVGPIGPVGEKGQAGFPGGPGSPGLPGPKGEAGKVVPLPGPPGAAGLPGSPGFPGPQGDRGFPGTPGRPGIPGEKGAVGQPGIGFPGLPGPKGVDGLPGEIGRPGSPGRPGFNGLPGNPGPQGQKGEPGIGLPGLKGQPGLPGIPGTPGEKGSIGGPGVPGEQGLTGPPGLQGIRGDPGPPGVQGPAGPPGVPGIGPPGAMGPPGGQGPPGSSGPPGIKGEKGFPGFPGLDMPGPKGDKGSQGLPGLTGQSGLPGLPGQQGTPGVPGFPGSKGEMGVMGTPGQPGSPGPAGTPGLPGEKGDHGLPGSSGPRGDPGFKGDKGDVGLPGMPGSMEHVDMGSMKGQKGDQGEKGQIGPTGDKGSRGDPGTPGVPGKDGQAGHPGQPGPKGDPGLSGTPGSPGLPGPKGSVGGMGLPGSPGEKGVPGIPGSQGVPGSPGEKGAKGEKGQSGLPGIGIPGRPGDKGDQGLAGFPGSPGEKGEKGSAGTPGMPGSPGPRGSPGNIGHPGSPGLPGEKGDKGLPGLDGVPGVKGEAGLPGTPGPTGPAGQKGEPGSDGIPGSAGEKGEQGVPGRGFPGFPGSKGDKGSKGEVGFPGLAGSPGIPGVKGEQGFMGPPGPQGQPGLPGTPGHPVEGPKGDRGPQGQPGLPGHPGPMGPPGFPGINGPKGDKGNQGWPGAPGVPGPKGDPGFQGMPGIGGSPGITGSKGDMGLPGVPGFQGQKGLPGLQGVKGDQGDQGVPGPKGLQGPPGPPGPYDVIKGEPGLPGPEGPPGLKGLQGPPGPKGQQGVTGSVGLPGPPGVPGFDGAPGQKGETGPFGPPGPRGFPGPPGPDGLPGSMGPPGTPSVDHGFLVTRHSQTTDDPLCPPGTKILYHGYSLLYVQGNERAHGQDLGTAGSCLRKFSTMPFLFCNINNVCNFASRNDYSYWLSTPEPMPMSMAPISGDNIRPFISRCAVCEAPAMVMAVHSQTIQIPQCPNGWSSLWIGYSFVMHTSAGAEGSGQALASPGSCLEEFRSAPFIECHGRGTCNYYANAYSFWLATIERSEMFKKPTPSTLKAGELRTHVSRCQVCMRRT
Chain of denatured mouse collagen IV (P08122 26-1707, chain 2 of 2): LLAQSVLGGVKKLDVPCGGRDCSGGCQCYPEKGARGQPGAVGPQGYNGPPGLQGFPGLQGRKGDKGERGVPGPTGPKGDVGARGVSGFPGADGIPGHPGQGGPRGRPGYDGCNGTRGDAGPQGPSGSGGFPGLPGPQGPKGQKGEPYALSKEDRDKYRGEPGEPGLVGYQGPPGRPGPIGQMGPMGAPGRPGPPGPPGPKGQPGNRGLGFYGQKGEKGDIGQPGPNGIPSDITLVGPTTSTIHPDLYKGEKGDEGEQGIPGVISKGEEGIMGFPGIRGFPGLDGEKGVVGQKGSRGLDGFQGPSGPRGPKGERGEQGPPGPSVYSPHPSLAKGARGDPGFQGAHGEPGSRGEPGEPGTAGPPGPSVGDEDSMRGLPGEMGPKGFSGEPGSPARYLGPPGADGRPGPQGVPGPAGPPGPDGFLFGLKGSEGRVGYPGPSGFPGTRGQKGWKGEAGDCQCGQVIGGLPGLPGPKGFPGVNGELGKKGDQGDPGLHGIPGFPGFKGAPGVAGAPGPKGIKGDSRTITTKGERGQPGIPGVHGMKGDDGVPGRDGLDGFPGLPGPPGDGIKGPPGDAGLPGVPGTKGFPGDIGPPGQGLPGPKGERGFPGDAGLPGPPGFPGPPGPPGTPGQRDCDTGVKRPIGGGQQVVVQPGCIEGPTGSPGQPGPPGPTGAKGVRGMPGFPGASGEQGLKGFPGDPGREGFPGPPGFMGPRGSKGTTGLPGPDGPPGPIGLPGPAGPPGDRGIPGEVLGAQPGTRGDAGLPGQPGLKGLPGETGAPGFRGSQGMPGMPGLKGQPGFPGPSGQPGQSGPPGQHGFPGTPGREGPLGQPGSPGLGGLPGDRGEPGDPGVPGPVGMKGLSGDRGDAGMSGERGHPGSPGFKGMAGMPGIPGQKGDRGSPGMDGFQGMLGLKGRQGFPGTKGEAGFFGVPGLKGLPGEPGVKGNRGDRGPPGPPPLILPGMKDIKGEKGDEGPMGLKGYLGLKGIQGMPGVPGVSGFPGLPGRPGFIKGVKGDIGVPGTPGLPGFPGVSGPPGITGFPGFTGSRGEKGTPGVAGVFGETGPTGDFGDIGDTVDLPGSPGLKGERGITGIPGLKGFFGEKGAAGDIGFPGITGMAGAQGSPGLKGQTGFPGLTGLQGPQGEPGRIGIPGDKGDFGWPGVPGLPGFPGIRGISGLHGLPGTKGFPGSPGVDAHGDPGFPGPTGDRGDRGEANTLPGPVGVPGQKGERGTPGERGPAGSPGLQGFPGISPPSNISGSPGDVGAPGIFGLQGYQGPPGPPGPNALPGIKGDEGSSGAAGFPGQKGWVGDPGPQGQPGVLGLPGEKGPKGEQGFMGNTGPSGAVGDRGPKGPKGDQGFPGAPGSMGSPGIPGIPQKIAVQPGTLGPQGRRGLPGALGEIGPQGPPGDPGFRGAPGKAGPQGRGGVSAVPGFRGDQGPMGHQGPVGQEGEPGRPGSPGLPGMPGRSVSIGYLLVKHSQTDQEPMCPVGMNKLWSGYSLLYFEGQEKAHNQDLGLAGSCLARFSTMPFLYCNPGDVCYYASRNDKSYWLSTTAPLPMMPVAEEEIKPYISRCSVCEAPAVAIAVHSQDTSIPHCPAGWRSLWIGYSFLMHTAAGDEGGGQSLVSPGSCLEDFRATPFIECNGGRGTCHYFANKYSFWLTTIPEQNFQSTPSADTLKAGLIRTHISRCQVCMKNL

EC50 [nM] | Binder
487 | B3
197 | B5
229 | B6

Biological target: denatured mouse collagen I (mouse, UniProt P11087 152-1207; Q01149 86-1125)
Experiment: ELISA

EC50 [nM] | Binder
10.2 | B6

Biological target: T3, denatured human collagen type IV
Experiment: ELISA
Remark: another data set of the same source

EC50 [nM] | Binder
11.9 | B8
1.86 | B9
9.77 | B10
3.83 | B11
6.13 | B12
1.69 | B13
5.05 | B14
9.97 | B5
